Measurements published in patent US11648290B2, “Cartilage-homing peptides” (FRED HUTCHINSON CANCER CENTER, priority 2015, dated 2023).

How the values were obtained:
[1] = system: cartilage; conditions: for Cartilage (C): percentage of signal in the cartilage compared to the blood signal in the heart ventricle / Muscle (M): signal compared to the level in the blood: 3 hours after administration, ligated kidneys, 14C-labelled peptide, tail vein
Method: This example describes a dosing scheme for administering knottin peptides to mice in conjunction with kidney ligation. Different dosages of the peptides were administered to Female Harlan athymic nude mice, weighing 20 g-25 g, via tail vein injection (n=2 mice per knottin). The experiment was done in duplicates. The kidneys were ligated to prevent renal filtration of the peptides. Each peptide was radiolabeled by methylating lysines and the N-terminus, so the actual binding agent may contain methyl or dimethyl lysine(s) and a methylated or dimethylated amino terminus.
A target dosage of 50-100 nmol of each peptide carrying 10-25 uCi of ^14C was administered to Female Harlan athymic nude mice while anesthetized. Each peptide was allowed to freely circulate within the animal before the animals were euthanized and sectioned.
This example illustrates peptide homing to cartilage of mice with kidneys that were ligated prior to peptide administration. At the end of the dosing period in EXAMPLE 3, mice were frozen in a hexane/dry ice bath and then frozen in a block of carboxymethylcellulose. […] Thin, frozen sections of animal including imaging of tissues such as brain, tumor, liver, kidney, lung, heart, spleen, pancreas, muscle, adipose, gall bladder, upper gastrointestinal tract, lower gastrointestinal tract, bone, bone marrow, reproductive track, eye, cartilage, stomach, skin, spinal cord, bladder, salivary gland, and other types of tissues were obtained with a microtome, allowed to desiccate in a freezer, and exposed to phosphoimager plates for about ten days.
These plates were developed, and the signal (densitometry) from each organ was normalized to the signal found in the heart blood of each animal. A signal in tissue darker than the signal expected from blood in that tissue indicates peptide accumulation in a region, tissue, structure or cell. For instance, the cartilage is avascular and contains minute amounts of blood. A ratio of at least 170% signal in the cartilage versus heart ventricle was chosen as a reference level for significant targeting to cartilage, which also correlated with clear accumulation in cartilaginous tissues in the images of the slices.
The SEQ ID NO: 24 peptide was radiolabeled as in Example 3 and 100 nmol of peptide was injected into a mouse with intact kidneys. FIG. 5 illustrates the retention of and the tissue distribution in the cartilage of a peptide of SEQ ID NO: 24, 24 hours after administration.

[2] = Temperature stability of peptides (RP-HPLC); type: physicochemical
Method: This example illustrates peptide stability at high temperatures. Peptides were first suspended in 500 μl of ddH2O to a stock concentration of 2 mg/ml. Reactions were prepared by adding 6.25 μl of peptide from the stock solution with 95 μl ddH2O and incubated at room temperature, 70° C., or 100° C. for one hour in a Thermocycler. RP-HPLC was then run on samples using an Agilent 1260 HPLC equipped with a C-18 Poroshell 120B column. Sample were analyzed by a gradient method with a mobile phase of Solvent A (water with 0.1% TFA) and Solvent B (acetonitrile with 0.1% TFA). Solvent B was ramped up from 5%-45% of the mobile phase over a period of 10 minutes.
Peptides of SEQ ID NO: 28 and SEQ ID NO: 483 were analyzed by HPLC after incubation at room temperature (25° C.), 70° C., or 100° C. for one hour.

[3] = system: cartilage; experiment: Cartilage homing, no method given; conditions: in vivo
[4] = system: cartilage (IVD, knee / synovial joints); experiment: Whole body autoradiography (WBA) of radiolabeled cartilage homing peptides (Example 21); type: in vivo, Female Harlan athymic nude mice; conditions: for Signal in the intervertebral disc (IVD), Average: percentage of blood
Method: This example illustrates peptide homing to cartilage mice 5 minutes to 48 hours after administration of a radiolabeled peptide. Signal from the radiolabeled peptides was found in all types of cartilage at each time point examined. Each peptide was radiolabeled by methylating […] as described in EXAMPLE 2. As such, the peptide may contain methyl or dimethyl lysines and a methylated or dimethylated amino terminus. A dose of 100 nmol radiolabeled peptide was administered via tail vein injection in Female Harlan athymic nude mice, weighing 20-25 g. The experiment was done in duplicate (n=2 animals per group). In some animals, kidneys were ligated to prevent renal filtration of the radiolabeled peptides and extend plasma half-life. Each radiolabeled peptide was allowed to freely circulate within the animal for the described time period before the animals were euthanized and sectioned.
Whole body autoradiography (WBA) sagittal sectioning was performed as follows. […] Sections were allowed to desiccate in a freezer prior to imaging.
For the autoradiography imaging, tape mounted thin sections were freeze dried and radioactive samples were exposed to phophoimager plates for 7 days.

[5] = Peptide resistance to reducing agents (10 mM DTT, RP-HPLC); type: physicochemical; conditions: 10 mM DTT in PBS, room temperature, 30 minutes
Method: Several peptides were suspended in 500 μl of ddH2O to a stock concentration of 2 mg/ml. Reactions were prepared by adding 12.5 μg peptide from the stock solution to a 10 mM solution of DTT in PBS and allowed to incubate at room temperature for 30 minutes. RP-HPLC was run on samples using an Agilent 1260 HPLC equipped with a C-18 Poroshell 120B column. Samples were analyzed by a gradient method with a mobile phase of Solvent A (water with 0.1% TFA) and Solvent B (acetonitrile with 0.1% TFA). Solvent B was ramped up from 5%-45% of the mobile phase over a period of 10 minutes.
Peptides were fractionated by HPLC and without any further sample prep, 5 μl of the sample was injected into the mass spectrometer at 1 mg/ml using a CTCPAL® autosampler. Alternatively, if peptides were provided as a lyophilized powder, the sample was dissolved in 100% water to a concentration of 1 mg/ml a Millipore Ziptip C18® column was used to desalt the peptides prior to injection for ES-MS. The mass spectrometer was calibrated using 5 pmol of mixture of five standard peptides to achieve a high accuracy of mass determination with less than a 10 ppm error. Confirmation of peptide disulfide bond formation was achieved by analyzing the m/z isotopic distribution and the exact charge. All peptides tested are shown under reducing and non-reducing conditions.

[6] = 3 hr after 100 nmol radiolabeled peptide
[7] = 24 hr after 100 nmol radiolabeled peptide

Substance: 21 (GSGIVCKVCKIICGMQGKKVNICKAPIKCKCKKG) [compound 21]
- Cartilage (C): percentage of signal in the cartilage compared to the blood signal in the heart ventricle [1]: 270%
- Muscle (M): signal compared to the level in the blood [1]: 36%

Substance: 22 (GSSEKDCIKHLQRCRENKDCCSKKCSRRGTNPEKRCR) [compound 22]
- Cartilage (C): percentage of signal in the cartilage compared to the blood signal in the heart ventricle [1]: 337%
- Muscle (M): signal compared to the level in the blood [1]: 27%

Substance: 23 (GSVRIPVSCKHSGQCLKPCKDAGMRFGKCMNGKCDCTPK) [compound 23]
- Cartilage (C): percentage of signal in the cartilage compared to the blood signal in the heart ventricle [1]: 497%
- Muscle (M): signal compared to the level in the blood [1]: 26%

Substance: 24 (GSGVPINVKCRGSRDCLDPCKKAGMRFGKCINSKCHCTP) [compound 24]
- Cartilage (C): percentage of signal in the cartilage compared to the blood signal in the heart ventricle [1]: 624%
- Muscle (M): signal compared to the level in the blood [1]: 34%

Substance: 25 (GSAVCVYRTCDKDCKRRGYRSGKCINNACKCYPYG) [compound 25]
- Cartilage (C): percentage of signal in the cartilage compared to the blood signal in the heart ventricle [1]: 358%
- Muscle (M): signal compared to the level in the blood [1]: 24%

Substance: 26 (GSISCTGSKQCYDPCKRKTGCPNAKCMNKSCKCYGCG) [compound 26]
- Cartilage (C): percentage of signal in the cartilage compared to the blood signal in the heart ventricle [1]: 413%
- Muscle (M): signal compared to the level in the blood [1]: 38%

Substance: 27 (GSQVQTNVKCQGGSCASVCRREIGVAAGKCINGKCVCYRN) [compound 27]
- Cartilage (C): percentage of signal in the cartilage compared to the blood signal in the heart ventricle [1]: 448%
- Muscle (M): signal compared to the level in the blood [1]: 31%

Substance: 28 (GSEVIRCSGSKQCYGPCKQQTGCTNSKCMNKVCKCYGCG) [compound 28]
- Cartilage (C): percentage of signal in the cartilage compared to the blood signal in the heart ventricle [1]: 361%
- Muscle (M): signal compared to the level in the blood [1]: 17%

Substance: 29 (GSACKGVFDACTPGKNECCPNRVCSDKHKWCKWKL) [compound 29]
- Cartilage (C): percentage of signal in the cartilage compared to the blood signal in the heart ventricle [1]: 243%
- Muscle (M): signal compared to the level in the blood [1]: 26%

Substance: 30 (GSQIYTSKECNGSSECYSHCEGITGKRSGKCINKKCYCYR) [compound 30]
- Cartilage (C): percentage of signal in the cartilage compared to the blood signal in the heart ventricle [1]: 221%
- Muscle (M): signal compared to the level in the blood [1]: 26%

Substance: 31 (GSGCLEFWWKCNPNDDKCCRPKLKCSKLFKLCNFSFG) [compound 31]
- Cartilage (C): percentage of signal in the cartilage compared to the blood signal in the heart ventricle [1]: 306%
- Muscle (M): signal compared to the level in the blood [1]: 68%

Substance: 33 (GSGCFGYKCDYYKGCCSGYVCSPTWKWCVRPGPGR) [compound 33]
- Cartilage (C): percentage of signal in the cartilage compared to the blood signal in the heart ventricle [1]: 179%
- Muscle (M): signal compared to the level in the blood [1]: 28%

Substance: 196 (GSQKILSNRCNNSSECIPHCIRIFGTRAAKCINRKCYCYP) [compound 196]
- Cartilage (C): percentage of signal in the cartilage compared to the blood signal in the heart ventricle [1]: 291%
- Muscle (M): signal compared to the level in the blood [1]: 30%

Substance: 198 (GSAVCNLKRCQLSCRSLGLLGKCIGDKCECVKHG) [compound 198]
- Cartilage (C): percentage of signal in the cartilage compared to the blood signal in the heart ventricle [1]: 276%
- Muscle (M): signal compared to the level in the blood [1]: 26%

Substance: 433 (GSKCLPPGKPCYGATQKIPCCGVCSHNNCT) [compound 433]
- Cartilage (C): percentage of signal in the cartilage compared to the blood signal in the heart ventricle [1]: 156%
- Muscle (M): signal compared to the level in the blood [1]: 20%

Substance: 483 (GSISIGIKCSPSIDLCEGQCRIRKYFTGYCSGDTCHCSG) [compound 483]
- Cartilage (C): percentage of signal in the cartilage compared to the blood signal in the heart ventricle [1]: 67%
- Muscle (M): signal compared to the level in the blood [1]: 24%

Substance: 485 (METDTLLLWVLLLWVPGSTG) [compound 485]
- Cartilage (C): percentage of signal in the cartilage compared to the blood signal in the heart ventricle [1]: 92%
- Muscle (M): signal compared to the level in the blood [1]: 21%

Substance: GSEVIRCSGSKQCYGPCKQQTGCTNSKCMNKVCKCYGCG [SEQ ID NO: 28]
- Stability after heat incubation (HPLC) ([2]; 70 C for 1 hour): resistant to heat-induced degradation
- Stability after heat incubation (HPLC) ([2]; 100 C for 1 hour): underwent various degrees of degradation

Substance: GSGDCLPHLKRCKENNDCCSKKCKRRGANPEKRCR [SEQ ID NO: 205]
- Cartilage homing [3]: home to cartilage

Substance: GSGDCLPHLRRCRENNDCCSRRCRRRGANPERRCR [SEQ ID NO: 200]
- Cartilage homing (qualitative, WBA) ([4]; 100 nmol radiolabeled peptide): showed signal in cartilage and exhibited cartilage homing properties
- Change of signal in IVD and joint cartilage between 3 and 24 hours ([4]; 100 nmol radiolabeled peptide): maintained or increased
- Signal in the intervertebral disc (IVD), Average [4, 6]: 1809%
- Signal in synovial joints as a percentage of signal in blood, Average [4, 7]: 4991%
- Signal in the intervertebral disc (IVD), Average [4, 7]: 3542%

Substance: GSKCLPPGKPCYGATQKIPCCGVCSHNNCT [SEQ ID NO: 433, reference compound]
- Homing to cartilage (autoradiography, FIG. 11) ([1]; 24 hours after administration of 100 nmol): did not home to cartilage and was seen in the bone marrow

Substance: GSQKILSNRCNNSSECIPHCIRIFGTRAAKCINRKCYCYP [SEQ ID NO: 196]
- HPLC peaks under non-reducing versus reducing conditions (resistance to reduction by DTT) [5]: Peaks showing the peptide under non-reducing conditions and reducing conditions are overlapping

Substance: GSQVQTNVRCQGGSCASVCRREIGVAAGRCINGRCVCYRN [SEQ ID NO: 114]
- Cartilage homing (qualitative, WBA) ([4]; 100 nmol radiolabeled peptide): showed signal in cartilage and exhibited cartilage homing properties
- Change of signal in IVD and joint cartilage between 3 and 24 hours ([4]; 100 nmol radiolabeled peptide): reduced residence time with a signal near the limit of detection by 24 hours
- Signal in synovial joints as a percentage of signal in blood, Average [4, 6]: 1175%
- Signal in the intervertebral disc (IVD), Average [4, 6]: 1075%
- Signal in the intervertebral disc (IVD), Average [4, 7]: 191%

Substance: GSSEKDCIKHLQRCRENKDCCSKKCSRRGTNPEKRCR [SEQ ID NO: 22]
- Cartilage homing [3]: home to cartilage

Substance: GSSERDCIRHLQRCRENRDCCSRRCSRRGTNPERRCR [SEQ ID NO: 109]
- Cartilage homing (qualitative, WBA) ([4]; 100 nmol radiolabeled peptide): showed signal in cartilage and exhibited cartilage homing properties
- Change of signal in IVD and joint cartilage between 3 and 24 hours ([4]; 100 nmol radiolabeled peptide): maintained or increased
- Rank of signal in cartilage among SEQ ID NO: 109, 200, 110, 114 ([4]; 100 nmol radiolabeled peptide): highest signal in cartilage
- Signal in synovial joints as a percentage of signal in blood, Average [4, 6]: 5627%
- Signal in the intervertebral disc (IVD), Average [4, 6]: 2758%
- Signal in synovial joints as a percentage of signal in blood, Average [4, 7]: 5097%
- Signal in the intervertebral disc (IVD), Average [4, 7]: 4367%

Substance: GSVRIPVSCRHSGQCLRPCRDAGIVIRFGRCMNGRCDCTPR [SEQ ID NO: 110]
- Cartilage homing (qualitative, WBA) ([4]; 100 nmol radiolabeled peptide): showed signal in cartilage and exhibited cartilage homing properties
- Change of signal in IVD and joint cartilage between 3 and 24 hours ([4]; 100 nmol radiolabeled peptide): decreased
- Signal in synovial joints as a percentage of signal in blood, Average [4, 6]: 3142%
- Signal in the intervertebral disc (IVD), Average [4, 6]: 2374%
- Signal in synovial joints as a percentage of signal in blood, Average [4, 7]: 981%
- Signal in the intervertebral disc (IVD), Average [4, 7]: 1327%

Substance: VFINVKCRGSPECLPKCKEAIGKSAGKCMNGKCKCYP [SEQ ID NO: 422]
- Cartilage homing [3]: homes to cartilage
